# Assay results reported in the nanobody polyreactivity screen of Harvey et al. (2022).
# Experiment: yeast display, Sf9 membrane polyspecificity reagent, FACS + sequencing; frameworks hold sequencing errors
# In short: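 Synthetic nanobody libraries on Saccharomyces cerevisiae BJ5465 were galactose-induced for 36–48 hours, stained 1 hour at 4 °C with 10% biotinylated, detergent-solubilized Sf9 membrane reagent and enriched on streptavidin microbeads. FACS then separated cells into low and high (top ~1%) gates by anti-HA (expression) and streptavidin (reagent binding) fluorescence. Genes were colony-PCR amplified, MiSeq 2 × 250 sequenced and CDR-length filtered. A clone's polyreactivity label is that of its gate of origin.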
row,Sequence,polyreactivity (PSR sort gate)
1,QVQLVESGAGLVQAGGSLRLSCAASGSTFVINAMGWYRQPPGKEREFVADIDYRGGSTNYADSVKGRFTISHDNAKNTFYLQMNSLKPEDTAVYYCAAARVTIRSSHWSVDYWGQGTQVTVSS,low polyreactivity
2,QVQLVESGAGLVQAGGSLRLSCAASGSTFWWNTMGWYRQAPGKERELVAAITTGGGTYYADSVKGRFTISRDNAKNTVYLQMNSLKPEDTAVYYCAATVRSYGWYAYHYSTYGYWGQGTQVTVSS,low polyreactivity
3,QVQLVESGAGLVQAGGSLRLSCAASGYTFYFYAMGWYRQAPGKERELVAAITGGGTTSYADSVKGRFTISRDNAKNTVYLQMNSLKPEDTAVYYCNVLFADKSDYCGQGTQVTVSS,low polyreactivity
4,QVQLVESGAGLVQAGGSLRLSCADSGIIFSSNAMGWYRQAPGKERELVASITSAGNTYYADSVKGRFTISRDNAKNTVYLQMNSLKPEDTAVYYCYARYYYQYFHFSWSYPYGSWGQGTQVTVSS,high polyreactivity
5,QVQLVESGAGLVQAGGSLRLSCAPSGFTFSWYVMGWYRQAPGKERELVAAITSSGGRTYYADSVKGRFTISRDNAKNTVYLQMNSLKPEDTAVYYCAARFKRGLGDSWGQGTQVTVSS,high polyreactivity
6,QVQLVESGAGLVQAGGSLRLSCDASGRTVNIYAMGWYRQAPGKERELVADISYSDGSTDYADSVKGRFTISRDNAKNTVYLQMNSLKPEDTAVYYCAAYYYYYYGFGQRYYSWGQGTQVTVSS,low polyreactivity
7,QVQLVESGAGLVQAGGSLRLSFAASGRTFRGYAMGLYRQGPGKEREWVAAISSGGSTYYADSVKGRFTISRDNAKNTVSLQMYSLKPEDTAVYYCARAVGNYRTLEFDYWGQGTQVTVSS,low polyreactivity
8,QVQLVESGAGLVQAGGSRRLSCAASVLIFAWYAMGWSRQAPGNERELVAAITGTGSSTYYADSVKGRFTISRDNAKNTVYLLLNSLKPDDTAVYYCAPTSLPRYYYWGQGTQVTVSS,low polyreactivity
9,QVQLVESGAGLVQAGVSLRLSCAASGSIFADYAMGWYRQAPGKERELVAVISRRGGTTYYADSVKGRFTISRDNAKNTVYLPMNSLKPEDTAVYYCAARRSFNEYDYWGQGTQVTVSS,high polyreactivity
10,QVQLVESGAGLVQAGVSLRLSCAPSGFTFTGYAMGWYRQSPGKERELVASISKSDGSTYYAESVKGRFTISRDNAKNTVYLQMNSLKPEDTAVFYCAADANTRGSKGRLTHYDYWGQGSQVTVSS,low polyreactivity
11,QVQLVESGAGLVQARASHRLSCAASGSTLYAYAIGCSRQEPGKEREMVAAISGTGGSTYYADSVKGRFTISRDNAKNTVYLQMNTLKPEDTADYYCAAYYNYFGQRYYYWGQGTQVTVSS,high polyreactivity
12,QVQLVESGAGVVQAGGSLRLSCAASGSTFYRYAMGWYRQAPGKERELVATITNSGGSTYYADSVKGRFTISRDNAKNTVYLQMNSLKPEDTAVYYCARVRSRNTGYYYWGQGTQVTVSS,high polyreactivity
13,QVQLVESGEGLVQAGGSLRLSCAASGIFPYNAMGWYRQAPGKEREFVAGISRRGGSTYYADSVKGRFTISRDNAKNTVYLQMNSLKPEDTAVYYCAAGTYHKVVRRWASYYYWGQGTQVTVSS,high polyreactivity
14,QVQLVESGGALDQAGGSLRLTCAASGFIFGVNAKGWYRKAPGKERELVAAITARSGSTYYADSVKGRFTISRDNAKNTVYLQMNSLKPEDTAVYYWATPVYRSTYEYDYWGQGTQVTVSS,low polyreactivity
15,QVQLVESGGALDQAGGSLRLTCAASGFIFYFYAKGWYRQAPGKERELVAAIDSAGSTNYADSVKGRFTISRDNAKNTVYLQMNSLKPEDTAVYYCAREPDSYVSWRSRYNYWGQGTQVTVSS,low polyreactivity
16,QVQLVESGGALLQAGGSLRLSCAASGGTFYDYAMGWYRQAPGKERELVAAISASGDSTYYADSVKGRFTISRDNAMNTVYLQMNSLKPEDTAVYYCAAEFTAFDGFDYWGQGTQVTVSS,low polyreactivity
17,QVQLVESGGALVLAGGSLRLSCAASGFTFQYYAMGWYRQAPGKERELVAAIDWTGGSTYYADSVKGRFTISRDNAKNTVYLQMNSLKPEDTAVYFCNRELTSPRRWHVSRAYDYWGQGTQVTVSS,low polyreactivity
18,QVQLVESGGALVQAGGRLRLSCAASGRTFRAYAMGWYRQAPGKERELVAAITSGGSTYYADSVKGRFTISRDNAKNTVYLQMNSLKPEDTEVYYCNRRGWSRTHQYDYWGQGTQVTVSS,high polyreactivity
19,QVQLVESGGALVQAGGSLRISCAASGLTFKLYTMGWYRQAPGKERELLAAISRSGTRTYYADSVKGRFTISRDNAKNTVYLLMNSLKPEDTADYYCAARTDGYRNNYWGQGTQVTVSS,high polyreactivity
20,QVQLVESGGALVQAGGSLRISCAASGRIFDGYTMGWSRQAPGKERELVAAITSGGGSTYYADSVKGRFTISRDNAKNTVYLQMNSLKPEDTAVYYCAAYRRNTYWGQGTQVTVSS,high polyreactivity
21,QVQLVESGGALVQAGGSLRLNCAASGRTFGYNAMGWYRQAPGKERELVAAITIGGSTNYADSVKWRFTISRDNAKNNGYLQMNSLLPEDTAVYYCAAYDTLLYWVEFYYWGQGTQVTVSS,low polyreactivity
22,QVQLVESGGALVQAGGSLRLSCAASGFTFPPSARGWYRQAPGKERELVARITWSGDRTYYADSVKGRFTISRDNAKNTVYLQMNSLKPEDTAVYYCAARRLPRKERKLYYWGQGTQVTVSS,high polyreactivity

row,Sequence,polyreactivity (PSR sort gate)
1,QVQLVESGGALVQAGGSLRLSCAASGISFSWYAMGWYRQAPGKEREFVAAISRGGTSTYYADSVKGRLTISRDNAKNTVYLQMNSLKPEDTAVSYCAVQWLYPYDYWGQGTQVTVSS,high polyreactivity
2,QVQLVESGGALVQAGGSLRLSCAASGITFKPYGMGRYRQAPGKETELVADITSGGITYYADSVKGRFTISRDNAKNTVYLQMNSLKPEDTDVYYCAAVGGRSSYRLDYWGQGTQVTVSS,low polyreactivity
3,QVQLVESGGALVQAGGSLRLSCAASGLIYSHNAMGWYRQAPGKERELVAAISWRGGRTYYADSVKGRFTISRDNAKNTVYLLMNSLKPEDTAVFYCNKYYGKRYDYLGQGTQVTVSS,high polyreactivity
4,QVQLVESGGALVQAGGSLRLSCAASGNIFVYYAMGGYRQAPGKERELVAAITSDVSTYYADSVKGRFTISRDNAKNTVYLQMNSLKPEDTAVYYCATTGYGSYVIYWGQGTQVTVSS,low polyreactivity
5,QVQLVESGGALVQAGGSLRLSCAASGNTFRGYTMGWYRQAPGKEREFVAAISWSGGRTNYADSVKGRFTISRDNAKNTVYLQMNSLTPEDTAVYYCGRDYRARRWGMDYWGQGTQVTVSS,high polyreactivity
6,QVQLVESGGALVQAGGSLRLSCAASGRIFGVYAMGWYRQAPGKERELVAAITRGASTYYADSVKGRFTISRDNSKNTVYLQMNSLKPEDTAVYYCAVSQYRGIYRKYDYWGHGTQVTVSS,high polyreactivity
7,QVQLVESGGALVQAGGSLRLSCAASGRTFAKYAMGWYRQAPGKERELFAAINSSGGSTYYADSVKGRFTISRDNAKNTVYLQMNSLKPEDTAVYYCADLGIGSYRRYSGYDYWGQGTQVTVSS,low polyreactivity
8,QVQLVESGGALVQAGGSLRLSCAASGRTFGLTAMGWYRQAPGKERELVAAITWSDDDTYYADSVKARFTNSRDNAKNTVYLQMNSLKPEDTAVYYCAATYPYRQYDYWGQGTQVTVSS,low polyreactivity
9,QVQLVESGGALVQAGGSLRLSCAASGRTFYPNAMGGYRQAPGKERELVAGSSYGTGSTYYADSVKGRFTISRDNAKNTVYLQMNSLKAEDNAVYYCAADNWAVNAYYWYIYDYWGQGTQVTVSS,low polyreactivity
10,QVQLVESGGALVQAGGSLRLSCAASGSIFGSYALGWYRQAPGKERELVASITRVDSTNYADSVKGRFTISRDNAKNTVYLQMNSLKPEDTAVYYCAADITSPAYATYDYWGQGTQVTVSS,low polyreactivity
11,QVQLVESGGALVQAGGSLRLSCAASGSIFRFYAMGWYRQAPGKERELVAAISWSGGSTYYADSVKGRFTISRDNAKNTVYLQMNSLKPEDTAVYYCNTRYYGGFDSWGQGTQVTVSS,high polyreactivity
12,QVQLVESGGALVQAGGSLRLSCAASGSIFSRYTMGWYRQAPGKERELVAAIPSSGGRTYYADSVKGRFTNSRDNAKNTVYLQMNSLKPEDTAVYYCNAGGAYEYDYWGQGTQVTVSS,high polyreactivity
13,QVQLVESGGALVQAGGSLRLSCAASGSIFYVYAMGWYRQAPGKEREFVAAITWSGGRTYYADSVKGRFTISRDNAKNTVYLQMNSLKPEDTAVYYCAAGKYRYTYYALEYDYWGQGTQVTVSS,low polyreactivity
14,QVQLVESGGALVQAGGSLRLSCAASGSIYGGYTMGWYRHAPGKEMEFVAAISRRGGNTYYADSVKGRFTISRDNAKNTVYLQMNSLKPEDTAVYYCAVRWPSARIQVKLDYWGQGTQVTVSS,high polyreactivity
15,QVQLVESGGALVQAGGSLRLSCAASGSTFDANVMGWYRQAPGKERELVAAISRDTNTYYADSVKGRFTISRDNAKNTVYLQMNSLKPEDTAVYYYWGQGTQVTVSS,low polyreactivity
16,QVQLVESGGALVQAGGSLRLSCAASGSTFFHYAMGWYRQAPGKERELVAAIDSNGGSTYYADSVKGRFTISRDNAKNTVYLQMNSLKPEDTAVYYCAADDLAEFEYDYWGQGTQVTVSS,low polyreactivity
17,QVQLVESGGALVQAGGSLRLSCAASGSTSVDYTMGWYRQAPGNDKDLVAAIDYNGDSTYYADSEKGRFTISRDNAKNTFYLQMNSLKPEDTAVYYCAADVWTLDPEVYDYWGPGTQVTVSS,low polyreactivity
18,QVQLVESGGALVQAGGSLRLSCAASGYIFAYYAMGWYRQAPGKERELVATISYGGGSTYYADSVKGRFTISRDNAKNTVYLQMNSLKPEDTAVYYCAAVPWASDGYYSWGQGTQVTVSS,low polyreactivity
19,QVQLVESGGALVQAGGSLRLSCAASGYIFRYYAMGWYRQAPGKVREFVAAISRNGGSKSYADSVKGRFTISRDNAKNTVYLQMISLKPEDTAVYYCNKRVGFLYKSDYWGQGTQVTVSS,high polyreactivity
20,QVQLVESGGALVQAGGSLRLSCAYSGLTFYGNTMGWYRQAPGKERELDAAITYSGTRTYYADSVKGRFTISRDTAKNTVYLQMNSLKPEDTAVYYCNALSYANSIDTYDYWGQVTQVTVSS,high polyreactivity
21,QVQLVESGGALVQAGGSLRLSCGASGSTFHPYAMGWYRQAPGKERELVGAITWRVGSTYYADSVKGRFTISRDNAKNTVYLQMNSLKPEETAVYYCAVSYLSTLVRSRYDYWGQGTQVTVSS,low polyreactivity
